Key:
[1] = Absorbance spectra assay of 2,4-D degradation by ChD or CAC; type: biochemical; settings: 2,4-D 200 mg/L + enzyme at 20X dilution (5 μM), one hour at 37° C.
[2] = Absorbance spectra assay of MCPA-4 amine degradation by ChD or CAC; type: biochemical; settings: one hour at 37° C.
Protocol: (§1) Small scale (1 mL) assays were performed to evaluate the ability of ChD and CAC to degrade MCPA-4 amine or mecoprop.
(§2) MCPA-4 amine and mecoprop have absorbance maxima (Amax) at approximately 230 and 280 nm. […] MCPA-4 amine or mecoprop end product generation is directly proportional to the degradation MCPA-4 amine or mecoprop, respectively.

[3] = Absorbance spectra assay of mecoprop degradation by ChD or CAC; type: biochemical; settings: one hour at 37° C.
Protocol: as §1, §2

[4] = Absorbance spectra assay of dicamba degradation by ChD or CAC; settings: dicamba 200 mg/L + enzyme at 20X dilution (5 μM), one hour at 37° C.
soybean plants [5] = assay: Field soybean plant protection assay with dicamba, CAC or ChD and MnSO4; settings: field soybean V3-V6, dicamba reaction buffer 200 ppm with 50 mM MnSO4, after 11 days
Protocol: The CAC and ChD enzymes were generated in production batches as previously described and divided up into aliquots and centrifuged to remove any cellular debris. […] The dilution to achieve 200 ppm or 200 mg/L was made in 25 mM HEPES pH 7 in a 10 mL total volume. […] To each treatment, 0.01% SILWET L-77 surfactant was added. Then, 4 mL of reaction solution was applied evenly across 20 plants and compared to the untreated control plants applied to soybean grown in the same location in the field to minimize any field variability. After 11 days, the average trifoliate damage was evaluated by visual scoring.

[6] = 2,4-D degradation by TfdA (2,4-dichlorophenol colorimetric assay and HPLC); type: biochemical
Protocol: They were cloned, expressed, and produced in production batches as previously described for SM1 and other pesticide detoxifying enzymes. […] Reactions were then added to a 15 mL conical tube and placed in a shaker at 30° C. Aliquots consisting of 1 mL were taken from each reaction at the desired time points and flash frozen in a −80° C. freezer for later testing.
The 2,4-D degradation reaction samples were defrosted and vortexed. Samples consisting of 200 μL of each reaction were removed and placed in a 96 well plate. To each well on the assay plate containing a reaction sample, […] pH 10 (0.309 g boric acid, 0.373 g potassium chloride, 4.4 mL 1 M NaOH per 100 mL solution), 2 μL 2% 4-aminoantipyrine, and 2 μL 8% potassium ferricyanide were added. The wells were mixed by back pipetting. The plate was then covered with a film and placed in a 30° C. incubator for 1 hour.

[7] = NADPH consumption by immobilized monooxygenases with dicamba; type: biochemical; settings: immobilized enzyme, dicamba 150 μM, 30° C., 60 minutes, vs no enzyme negative control (FIG. 3)
[8] = NADPH consumption by immobilized monooxygenases with 2,4-D; type: biochemical; settings: immobilized enzyme, 2,4-D 150 μM, 30° C., 60 minutes, vs no enzyme negative control (FIG. 3)
Protocol: Monooxygenases can be used to detoxify herbicides in a solution. Monooxygenases use NADPH as a co-factor when degrading substrates. Consumption of NADPH is proportional to the degradation of the substrate.
The ability of each of these enzymes to detoxify 2,4-D was evaluated in a similar manner. […] Aliquots were taken from the samples at 30 minute and one hour timepoints, and NADPH consumption was assessed by measuring absorbance at 340 nm.
(§3) An additional experiment was performed to assess the substrate specificity of the salicylate monooxygenase (SM, SEQ ID NO: 21). […] The assay buffer also contained 0.5 mM FeSO4, 0.5 mM NADPH, 10 mM MgCl2, and 25 mM HEPES (pH 7). After 60 minutes, absorbance at 340 nm was measured to detect NADPH consumption. Data are represented as averages+/−SD from three independent reads of each reaction.

[9] = NADPH consumption by immobilized salicylate monooxygenase with salicylic acid; type: biochemical; settings: immobilized enzyme, salicylic acid 150 μM, 30° C., 60 minutes (FIG. 3)
Protocol: as §3

lentil plants = assay: Lentil seeds coated with immobilized enzyme, grown in dicamba-containing soil; type: in vivo
Protocol: For each treatment group, eighteen lentil seeds were coated with immobilized salicylate monooxygenase (SM, SEQ ID NO: 21) or hydroxyphenylacetate monooxygenase (HPAM, SEQ ID NO: 30), or with a water-only control (H2O) or a control containing only the particles used for immobilization, without any enzyme (“Particle Alone”). […] 50 ml of water was selected as this is the saturation point of this soil at this scale. Herbicides were allowed to sit in the soil for 24 hours before planting of coated seeds. Germination rate was measured at one week and root and shoot lengths were measured after two weeks.
Further data illustrating the protective effects of salicylate monooxygenase (SM) and hydroxyphenylacetate monooxygenase (HPAM) on lentil plants grown in dicamba-containing soil are provided in FIGS. 6-9. Lentil seeds were treated as described above with water alone, particle alone, or enzyme immobilized on a particle. […] Growth (shoot and root length) was measured at two weeks.

soybean seedlings = assay: Spray of enzyme-treated dicamba solution onto soybean seedlings; type: in vivo; settings: 208 μM dicamba, immobilized enzyme, 30° C., soybean seedlings, one week
Protocol: Salicylate monooxygenase (SM, SEQ ID NO: 21) and hydroxyphenylacetate monooxygenase (HPAM, SEQ ID NO: 30) were immobilized on particles. […] Aliquots (1 ml) were taken from incubated samples at 0 minutes, 10 minutes, 30 minutes, 1 hour, 5 hours, 24 hours and 30 hours after the introduction of SM and immediately frozen to stop the detoxification reaction. NADPH consumption was quantified by measuring loss of absorbance at 340 nm using a spectrophotometer. Results for SM are shown in panel A of FIG. 10 and results for HPAM are shown in panel A of FIG. 11. Consumption of NADPH is proportional to the degradation of dicamba.
Immediately after taking the absorbance measurements, the 1 ml aliquots were mixed with a nonionic organosilicone surfactant copolymer (0.1% SILWET L77) and 200 μL of the mixture was sprayed onto 2.5-week-old soybean seedlings (six plants per treatment group, on average). The use of the surfactant ensured even distribution of the solutions on the plants. Control plants were sprayed with water+surfactant alone or dicamba+surfactant alone. After one week, the degree of herbicide damage or the degree of protection from dicamba-induced injury (in plants treated with SM) was assessed visually.

soybean plants [10] = assay: Soybean seed treatment with chlorothalonil dehalogenase, simulated spray drift of dicamba or 2,4-D; type: in vivo; settings: soybean seed coated with 3 uL enzyme, 4 weeks after planting; for Percentage Increase in Plant Height Compared to Untreated Seed (2,4-D; Weedar ®64 Spray Treatment) / Percentage Increase in Total Plant Biomass Compared to Untreated Seed (2,4-D; Weedar ®64 Spray Treatment): over the top 2,4-D 500 ppm; for Percentage Increase in Plant Height Compared to Untreated Seed (Dicamba; Clash ™ Spray Treatment) / Percentage Increase in Total Plant Biomass Compared to Untreated Seed (Dicamba; Clash ™ Spray Treatment): over the top dicamba 100 ppm
Protocol: Soybean (variety Asgrow AG4034) seed received a seed treatment with chlorothalonil dehalogenase (SEQ ID NO: 169) enzyme obtained from a production batch produced in a manner similar to that was described previously to generate the SM1 enzyme. Seed treatments were applied prior to planting. […] Seeds were then planted directly into 39.7 cm^3 pots containing a mixture of 3:1 Timberline top soil to MIRACLE GRO potting soil at a depth of 2.54 cm, with 2 seeds per pot. After planting, 50 mL of room temperature water was added to each pot to allow for germination. […] The treatments were then placed in a greenhouse and randomized using a complete block design to adjust for temperature and lighting differences. The plants received the same day/night cycle that would occur in the field on a summer's day. After the initial watering, plants received the same watering regimes. […] The soybean plants were then harvested and measured for biomass and plant height 4 weeks after planting.

soybean plants [11] = assay: V1 soybean bioassay of dicamba reacted with ChD with or without MnSO4; settings: dicamba 100-200 ppm
Protocol: Soybean plants (variety Morsoy Xtra) were planted in Timberline soil (2 seeds per pot) and grown for 12 days under controlled environmental growth conditions: 300 μmol m^−2 s^−1 (light photons) for a 13/11 light/day cycle and a 21° C. day/15° C. night temperature range until the V1 stage of development.
The dilution to achieve 100 ppm or 100 mg/L was made in 25 mM HEPES pH 7 in a 10 mL total volume. […] The ChD enzyme production was centrifuged to remove any cellular debris and then divided into aliquots of 100 μL containing the Bacillus subtillis (A64) filtrate with the ChD expressed enzyme. […] The reactions were incubated at 37° C. with 400 ppm stirring for two hours. Aliquots of the reactions were collected and stored at −80° C.

[12] = listed as Chlorothalonil dehalogenase (SEQ ID NO: 169)

B1: CAC: 6-chloronicotinic acid chlorohydrolase from Bradyrhizobiaceae strain SG-6C, amino acid SEQ ID NO: 167 (protein)
chain: MSLIAIKNADWILTMDGARRVIADGSILIDKDRIRAIGKSAVIEIPPETTKVIDGRGKVVLPGLIDSHTHHSLHLGRGLADECDIQTFLYRRLYPIEASLNDEDAYISALLCQLEMIKSGTTSIIDAGNYFPEATLRAFGTTGMRGVVARSTFDIPTSSLGSLPAQVFAEETNVALKRAEEFVERNSGACDGRVQAWLQLRVLPNCSDELCRGLKSIADRLGVRYEAHAAFTKEVYEASKLQFGKSEVRRLDDLGILGEGLLLAHMGWLTPRDILLLISSKTNVVLCPTSSVHQAMGSIAFGHVPELLEMGVNVALGTDGGPHGTNDLVRQIFVAAGGYKEVRLDATIMPPETVLEMATVNGARAMGMSDQVGSIEPGKKADITIFDSRRPEWRPLHNPVANLVYCANGNSADTVIVDGRILMENRKILTFNEDDVITEAQRRSVEIGARAGLLEYGRPRWPVH
modifications: Bradyrhizobiaceae family
- Percent (%) increase in 252 λ, (end product formed) compared to 2,4-D control [1]: 148%
- Percent (%) increase in 252 λ (end product formed) compared to MCPA-4-Amine control ([2]; MCPA-4 amine 200 mg/L + enzyme at 20X dilution (5 μM)): 340%
- Percent (%) increase in 252 λ (end product formed) compared to MCPA-4-Amine control ([2]; MCPA-4 amine 200 mg/L + enzyme at 40X dilution ([…])): 195%
- Percent (%) increase in 252 λ (end-product formed) compared to Mecoprop control ([3]; mecoprop 200 mg/L + enzyme at 20X dilution (5 μM)): 346%
- Percent (%) increase in 252 λ (end-product formed) compared to Mecoprop control ([3]; mecoprop 200 mg/L + enzyme at 40X dilution ([…])): 130%
- Percent (%) increase in 259 λ (end product formed) compared to dicamba control [4]: 344%
- average trifoliate damage score (soybean plants [5]): 1.0

B2: TfdA: 2,4-D alpha-ketoglutarate dioxygenase with A198V mutation, SEQ ID NO: 277 (protein, UniProt P10088 1-287, looked up)
Alpha-ketoglutarate-dependent …: MSVVANPLHPLFAAGVEDIDLREALGSTEVREIERLMDEKSVLVFRGQPLSQDQQIAFARNFGPLEGGFIKVNQRPSRFKYAELADISNVSLDGKVAQRDAREVVGNFANQLWHSDSSFQQPAARYSMLSAVVVPPSGGDTEFCDMRAAYDALPRDLQSELEGLRAEHYALNSRFLLGDTDYSEAQRNAMPPVNWPLVRTHAGSGRKFLFIGAHASHVEGLPVAEGRMLLAELLEHATQREFVYRHRWNVGDLVMWDNRCVLHRGRRYDISARRELRRATTLDDAVV
- 2,4-dichlorophenol generated ([6]; 2,4-D with TfdA enzyme, after 1 hour of incubation, 30° C. (FIG. 19)): over 2 mg/L
- reduction of 2,4-D concentration quantified by HPLC ([6]; 2,4-D with TfdA, at 4 hours (FIG. 20)): ~10%

B3: SM: salicylate monooxygenase from Bacillus cereus BGSC 6E1, amino acid SEQ ID NO: 21 (nucleotide SEQ ID NO: 1) (protein, listed as Bacillus cereus)
chain: MNNVIIIGGGIAGLCAAISLQKIGLDVKVYDKNTEPTVAGAGIIIAPNAMQALELYGISKKIKKFGNESDGFNLVSEKGTTFNKLIIPTCYPKMYSIHRKDLHQLLLSELKEDTVKWGKECVKIEQNEANALKIVFQDGSEALGNILIAADGIHSVIRKQVTQGDNYRYAGYTCWRGVTPANNLSLTNDFIETWGTNGRFGIVPLPNNEVYWYALINAKARDPKYKAYTTTDLYNHFKTYHNPIPSILKNASDIDMIHRDIIDITPMKQFFDKRIVFIGDAAHALTPNLGQGACQAIEDAIILAECIKNNAHYRQAFLEYEQKRRDRIEKISNTAWKVGKMAQIESKPLTLVRNEVMKRMPKWVSEKRTHELYSFHL
- NADPH consumption [7]: statistically significant levels
- NADPH consumption [8]: statistically significant levels
- NADPH consumption [9]: higher activity
- germination rate (lentil plants; lentil seeds coated with immobilized enzyme, soil with dicamba 0.1× or […] label rate, one week, vs water and particle-alone controls): positive effect
- shoot length (lentil plants; two-week-old lentil, soil with dicamba 0.1× label rate (0.588 mg/L), vs water only or particle only controls (FIG. 6, FIG. 8)): increased shoot lengths
- incubation time of enzyme with dicamba giving plants equivalent to the water control (soybean seedlings): ≤ 10 min

B4: ChD (SEQ ID NO: 169): chlorothalonil dehalogenase from Pseudomonas species strain CTN-3 with fifteen amino acid N-terminal truncation, SEQ ID NO: 169 (protein, listed as Pseudomonas sp.)
chain: MPLKFSGVLCASLLTITLSVAAHATELILDFNKVQMRSQQLAPGVYAHLPADSAELNAKGGVAGTSGGLIVGTRGAMLIETMLNRRLFDQVQALAKKEALGLPLLYAVNTSYHGDHSYGNMYLKAPTRVIQSTKTRDYVDGHLADDKAFMVKNFGAGRGVEQITARTGDILVPPGGRVSVDLGGKTVEIIDFGFAQTGGDLFVWEPQSKVMWTGNAVVASKPALPWLLDGKLVETLATLQKVYDFLPPDATIVPGHGVPMAREGLRWHLDYLAAVQAGVKDALARKLSLEQTVTELKMPEFRGYVLFDWVHPDLNVPAAYKDLAARP
- Percentage Increase in Plant Height Compared to Untreated Seed (2,4-D; Weedar ®64 Spray Treatment) (soybean plants [10]): +6%
- Percentage Increase in Total Plant Biomass Compared to Untreated Seed (2,4-D; Weedar ®64 Spray Treatment) (soybean plants [10]): +6%
- Percentage Increase in Plant Height Compared to Untreated Seed (2,4-D; Weedar ®64 Spray Treatment) (soybean plants [10]; [12]): +6%
- Percentage Increase in Total Plant Biomass Compared to Untreated Seed (2,4-D; Weedar ®64 Spray Treatment) (soybean plants [10]; [12]): +6%
- Percentage Increase in Plant Height Compared to Untreated Seed (Dicamba; Clash ™ Spray Treatment) (soybean plants [10]): +35%
- Percentage Increase in Total Plant Biomass Compared to Untreated Seed (Dicamba; Clash ™ Spray Treatment) (soybean plants [10]): +149%
- Percentage Increase in Plant Height Compared to Untreated Seed (Dicamba; Clash ™ Spray Treatment) (soybean plants [10]; [12]): +35%
- Percentage Increase in Total Plant Biomass Compared to Untreated Seed (Dicamba; Clash ™ Spray Treatment) (soybean plants [10]; [12]): +149%
- epinasty score and damage score on the trifoliate leaves compared to dicamba applied alone (soybean plants [11]): decrease in damage
- average trifoliate damage score (soybean plants [5]): 1.1

— patent US10428347B2, “Herbicide-detoxifying enzymes and uses thereof” (priority 2017, dated 2019)
